Tests used:
[1] = target: H3.3S31ph-nucleosome (H3.3-nucleosome with Ser31 phosphorylation) (UniProt P84243)
H3.3S31E-nucleosome = H3.3S31E-nucleosome (UniProt P84243)
H3.3S31A-nucleosome = H3.3S31A-nucleosome (UniProt P84243)
[2] = target: H3-nucleosome (mono-nucleosome with canonical H3) (UniProt P84233)
[3] = target: H3.3-nucleosome (mono-nucleosome with the variant H3.3) (UniProt P84243)

force of disruption in the first stretching cycle in the presence of FACT; no transitions in later cycles (magnetic tweezers) [1]: 13.9 pN
rupture force at which the nucleosome is completely disrupted in the presence of FACT (magnetic tweezers) (H3.3S31E-nucleosome): 25.4 pN
rupture force at which the nucleosome is completely disrupted in the presence of FACT (magnetic tweezers) (H3.3S31A-nucleosome): 25.4 pN
rupture force at which the nucleosome is completely disrupted in the presence of FACT (magnetic tweezers) [2]: 6.7 pN
rupture force at which the nucleosome is completely disrupted in the presence of FACT (magnetic tweezers) [3]: 24.5 pN
Substance: FACT (Facilitates Chromatin Transcription) complex (from UniProt Q9Y5B9 1-1047; Q08945 1-709)

From paper PMC12445699
